In patent US20190169305A1 (TEIKYO HEISEI UNIVERSITY, published 2019) one finds binding result and Kd data, which are given here for 1 molecule.

The target in assay [1] is T1, mouse TRAIL-R2:alpaca Fc (mTRAIL-R2:Fc) (mouse; Lama pacos (alpaca), UniProt Q9QZM4 52-177).
T1 construct: range 52-177;range 102-335; also called mTRAIL (mouse TRAIL)-R2:Fc
T1 sequence: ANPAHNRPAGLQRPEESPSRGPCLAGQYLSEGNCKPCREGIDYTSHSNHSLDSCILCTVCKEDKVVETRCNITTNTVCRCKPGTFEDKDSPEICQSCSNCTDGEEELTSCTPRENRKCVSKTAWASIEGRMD
The assay can be described thus: ELISA, antigens coated at 1 µg/ml, VHH monomer at 10 µg/ml, absorbance 450 nm.

For assay [2], the target named is T2, human TRAIL-R1:alpaca Fc (hTRAIL-R1:Fc) (human; Lama pacos (alpaca)).
T2 construct: also called hTRAIL-R1:Fc antigen; recombinant human TRAIL-R1 ECD
T2 chain: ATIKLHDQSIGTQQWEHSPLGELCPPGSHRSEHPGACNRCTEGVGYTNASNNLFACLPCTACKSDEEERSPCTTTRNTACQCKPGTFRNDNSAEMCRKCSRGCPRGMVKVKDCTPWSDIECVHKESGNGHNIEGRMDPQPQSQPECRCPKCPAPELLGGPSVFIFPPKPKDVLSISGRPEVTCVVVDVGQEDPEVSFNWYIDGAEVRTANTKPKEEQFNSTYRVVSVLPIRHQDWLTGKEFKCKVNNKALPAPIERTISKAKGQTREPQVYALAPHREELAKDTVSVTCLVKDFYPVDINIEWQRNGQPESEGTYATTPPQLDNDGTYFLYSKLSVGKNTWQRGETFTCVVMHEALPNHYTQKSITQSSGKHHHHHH
The assay is described as above.

In assay [3] the target is T3, human TRAIL-R2:alpaca Fc (hTRAIL-R2:Fc) (human; Lama pacos (alpaca)).
T3 construct: also called hTRAIL-R2:Fc antigen; recombinant human TRAIL-R2:Fc antigen
T3 chain: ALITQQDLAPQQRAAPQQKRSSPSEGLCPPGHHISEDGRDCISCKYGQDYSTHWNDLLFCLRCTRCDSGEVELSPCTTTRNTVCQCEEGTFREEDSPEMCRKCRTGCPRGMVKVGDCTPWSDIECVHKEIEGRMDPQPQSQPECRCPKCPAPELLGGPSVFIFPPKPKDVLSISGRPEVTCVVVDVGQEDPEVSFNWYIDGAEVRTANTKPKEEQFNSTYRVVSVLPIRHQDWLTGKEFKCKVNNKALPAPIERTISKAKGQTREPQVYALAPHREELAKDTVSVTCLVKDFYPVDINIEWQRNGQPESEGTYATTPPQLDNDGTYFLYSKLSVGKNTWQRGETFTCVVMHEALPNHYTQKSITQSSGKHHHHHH
In words: SPR, Biacore X-100, multi-cycle kinetics, 4E6 monomer as analyte (0.919-117.6 nM). (In general: Surface plasmon resonance follows binding to a sensor surface in real time, without labels.)

The target in assay [4] is T4, bovine serum albumin (bovine, UniProt P02769 25-607).
T4 construct: also called BSA; BSA negative antigen
T4 sequence (P02769 25-607 limits assumed): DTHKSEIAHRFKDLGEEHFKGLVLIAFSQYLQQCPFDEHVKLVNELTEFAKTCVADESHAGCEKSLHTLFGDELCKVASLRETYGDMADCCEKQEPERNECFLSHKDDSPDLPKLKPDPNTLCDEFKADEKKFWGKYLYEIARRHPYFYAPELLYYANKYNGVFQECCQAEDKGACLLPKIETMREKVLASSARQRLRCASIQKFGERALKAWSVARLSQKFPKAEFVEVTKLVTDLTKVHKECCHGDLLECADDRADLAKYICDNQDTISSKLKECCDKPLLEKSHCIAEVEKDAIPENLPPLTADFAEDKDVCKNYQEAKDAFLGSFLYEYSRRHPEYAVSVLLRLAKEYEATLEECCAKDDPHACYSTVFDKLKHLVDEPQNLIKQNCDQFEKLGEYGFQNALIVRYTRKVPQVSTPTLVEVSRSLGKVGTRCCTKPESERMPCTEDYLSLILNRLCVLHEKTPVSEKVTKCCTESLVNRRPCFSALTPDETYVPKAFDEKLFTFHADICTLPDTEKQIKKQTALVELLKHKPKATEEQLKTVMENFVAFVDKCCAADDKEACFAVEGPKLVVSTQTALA
The assay can be described thus: ELISA, BSA coated at 1 or 10 µg/ml, 4E6 monomer at 1 µg/ml, detected with anti-Myc 9E10 and anti-mouse IgG HRP, OD450. A general note: In an ELISA, binding on a coated surface is turned into a signal by an enzyme label.

B1: 4E6 monomer (anti-hTRAIL-R2 VHH antibody/Myc-Tag, expressed in E. coli) (VHH)
VHH: EVQLVESGGGSVQAGDSLRLSCAASGRTFGSIRVGWFRQTPGKEREFVAAINRNDGTTYYADSVKGRFTISRDNAKNTVYMQMASLKPEDTAVYYCAAGLQYNRSADRVPVGAVYWGQGTQVTVSS
notes: also called 4E6 VHH monomer; 4E6 monomeric protein
The term Kd denotes the constant that tells how readily two partners part at equilibrium. A lower Kd goes with tighter binding. As for B1, the binding result in assay [1] is listed as “no binding (tested: 10 µg/ml)”; in assay [2], “no binding (tested: 10 µg/ml)”; in assay [4] it was “no binding (tested: 1 µg/ml)”. This molecule also came in with a Kd in assay [3] of 0.075 nM.
